What was measured:
[1] = biological target: Cx36-DsRed (Rattus norvegicus) (UniProt O70610); test: FRET or BRET; acceptor photobleaching FRET in double transfected Neuro 2a cells fixed with 4% paraformaldehyde; ECFP donor, DsRed acceptor; threshold 1.7% (10 nm); cells untreated or treated before with 2 uM ionomycin or 24 uM BAPTA-AM (10 min), 5 ug/mL BFA (6 h) or 50 uM Dynasore (1 h)
[2] = biological target: Cx36-ECFP (Rattus norvegicus) (UniProt O70610); test: as above

FRET efficiency [1]	FRET efficiency [2]	FRET efficiency (cells treated with 2 uM ionomycin) [2]	FRET efficiency (cells treated with BFA for 6 h) [2]	FRET efficiency (no treatment, control of the Dynasore experiment) [2]	Substance
5.94					Cav-1-ECFP (natural protein)
	5.73	7.33	3.76	4	Cav-1-DsRed (natural protein)

Source: publication PMC7432810
